{
  "source": "paper PMC10182306",
  "target": "human platelet actin (human) (UniProt P60709)",
  "assay": "co-sedimentation",
  "data": [
    {"substance": "α-actinin (from UniProt P12814 1-892) (natural protein)", "values": [
      {"measurement": "percent of input pelleted with F-actin", "result": 77, "unit": "%"}
    ]}
  ]
}
